Data taken from the nanobody polyreactivity screen of Harvey et al. (2022).

Experiment: yeast display, Sf9 membrane polyspecificity reagent, FACS + sequencing; frameworks hold sequencing errors
Procedure, shortened: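 Using colony PCR, genes from sorted yeast display clones were amplified, then sequenced on MiSeq at 2 × 250 and filtered by CDR length. The clones had been stained with 10% biotinylated, detergent-solubilized Sf9 membrane reagent for 1 hour at 4 °C and sorted by FACS into low and high (top ~1%) gates on anti-HA and streptavidin fluorescence. Polyreactivity labels come from the gate of origin.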
With “QVQLVESGGGLVQAGGSLRLSCAASGSTFEAYAMGWDRQAPGKERELVAAISYSGSSTYYADSVKGRFTISRDNAMNSVYLQMHRLKPEDTALTYCAARASKGRRMGYWGQGTQVTVSS” the “polyreactivity (PSR sort gate)” value was “low polyreactivity”. For “QVQLVESGGGLVQAGGSLRLSCAASGSTFSIYAMGWYRQAPGKERELVAAITRRSGSTYYADSVKGRITISRDNAKNTVSLQMKSLKPEDTAVYYCAADTWRTDYTSSYYKNRDSWGQGTQVTVSS”, the “polyreactivity (PSR sort gate)” value was “high polyreactivity”. For “QVQLVESGGGLVQAGGSLRLSCDASGSILRYYAMGWYRQAPGKERELVADISTSGGSTYYADSVKGRFTISRDNAKNTVYLQMNSLKPEDTAVYYCAKPWYSSGFDYWGQGTQVTVSS”, the “polyreactivity (PSR sort gate)” value was “high polyreactivity”. In the case of “QVQLVESGGGLVQAGGSLRLSCAASGSTFYKYAMGWYRQAPGKERELVASISRSGGSTSYADSVKGRFTITRDNAKNTVYLQMNSLKPEDTAVYYCAATWRQHPGSMGYWGQGTQVTVSS”, the “polyreactivity (PSR sort gate)” value is reported as “high polyreactivity”. With “QVQLVQSGGGLVQAGGSLRLSCAASGIIFFKYAMGWYRQAPGKERELVAAITESTSSTYYADSVKGRFTISRDNAKNTVYLEMNSMKTEDTAVYYCAARVSQWLPYGGYSRYYYWGQGTQVTVSS” the “polyreactivity (PSR sort gate)” value was “high polyreactivity”. In the case of “QVQLVESGGGLVQAGGSLRLSCAASGRIFTYYTMGWYRQAPGKERELVAAISWSGGRTYYADSVKGRFTISRDNAKNTVYLQMNSLKPEDTAVFYCARLQDSRESPWRGYYWGQGTQVTVSS”, the “polyreactivity (PSR sort gate)” value is reported as “high polyreactivity”. For “QVQLVESGGGLVQAGGSLRLSCAASGSTFQPYTMGWYRQAPGKERELVAAISSSGRTNYADSVKGRFTISRDNAKNTVYLQMNSLKPEDTAVYYCNRDYPYIWHKGARYWHENDYWGQGTQVTVSS”, the “polyreactivity (PSR sort gate)” value was “low polyreactivity”. In the case of “QVQLVESGGGLVQAGGSLRLSCAASGFIFRYYAMGWYRQAPGKERELVAAISWRGGSTYYADSVKGRFTISRDNAKNTVYLQMNSLKPEDTAVYYCAAERYVDYGYWGQGTQVTVSS”, the “polyreactivity (PSR sort gate)” value is reported as “high polyreactivity”. With “QVQLVESGGGLVQAGGSLRLSCAASGIFDRYAMGWYRQAPGKERELVAAISYNAGSTYYADSVKGRFTISRDNAKNTVYLQMNSLKPEDTAVYYCAARGFGTVNGKLYGYWGQGTQVTVSS” the “polyreactivity (PSR sort gate)” value was “high polyreactivity”. For “QVQLVESGGGLVQAGGSLRLSCAASGYTFGTYDMGWYRQAPGKERELVAAISIGGSTNYADSVKGRFTISRDNAKNTVYLQKNSLKPEDTAVYYCAAEVNVGTLLLSVIVEDGDYWGQGTQVTVSS”, the “polyreactivity (PSR sort gate)” value was “low polyreactivity”. In the case of “QVQLVESGGGLVQAGGSLRLSCAASGRIFKWYAMGWSRQAPGKERELVAAITSGGSTYYADSVKGRFTISRDNAKNTVYVQMNSLKPEDTAVYYCNRYGVHRRDDYWGQGTQVTVSS”, the “polyreactivity (PSR sort gate)” value is reported as “high polyreactivity”. In the case of “QVQLVESGGGLVQAGGSLRLSCAASGRTSSSNAMGWYRQAPGKERELVATISRTGSTYYADSVKGRFTISRDNAKNTVYLQMNSLKPEDTSVYYCNRYFSEALLHGSCYNRYYYWGQGTQVTVSS”, the “polyreactivity (PSR sort gate)” value is reported as “low polyreactivity”. In the case of “QVQLVETGGGLVQAGGSLRLSCAASGRTFSGYAMGWSRQAPGKERELVASITWSGGSTYYADSVKGRFTISRDNAKNTVYLQMNSLKPDDTAVYYCARDSPRGRVGFNYWGQATQVTVSS”, the “polyreactivity (PSR sort gate)” value is reported as “low polyreactivity”. For “QVQLVESGGGLVQAGGSLRLSCAASGRIFRYYAMGWYRQAPGKERELVGSITYSGGRTNYADSVKGRFTISRDNAKNTVYLQMNSLKPEDTAVYYCNAAYVYYYPHYRYAPTAVDYDYWGQGTQVTVSS”, the “polyreactivity (PSR sort gate)” value was “low polyreactivity”. For “QVQLVESGGGLVQAGGSLRLSCAASGRIFPFNAMGCYRQAPGKEREFVAAIRLSGTRTYYADSVKGRFTISRDNAKNTVYLQINSLKPDDTAVYYCAAKYSGHYYNYDYWGQGTQVTVSS”, the “polyreactivity (PSR sort gate)” value was “high polyreactivity”. In the case of “QVQLVESGGGLVQAGGSLRLSCAASGRTFSRYAMGWYRQAPGKERELVAAITSGGSTYYADSVKGRFTISRDNAKNTVYLQMNSLKPEDTAVYYCAAVWRYGYSDGGYWGLGTQVTVSS”, the “polyreactivity (PSR sort gate)” value is reported as “high polyreactivity”. In the case of “QVQLVESGGGLVQAGGSLRLSCAASGSIFNYYAMGWYRQAPGKERELVAAISTSGGRTYYADSVKGRFTISRDNAKKTVYLQMNSLKPEDTAVYYCNAVSRTRAGAGDYWGQGTQVTVSS”, the “polyreactivity (PSR sort gate)” value is reported as “high polyreactivity”. With “QVQLVESGGGLVQSGGSLRLSCAASGRTFYDNVMGWYRQAPGKERELVAAISSGGSTNYADSVKGRFTISRDNAKNTVYLQMNSLKPEDTAFYYCATIGGGGWAYEYWGQGTQVTVSS” the “polyreactivity (PSR sort gate)” value was “low polyreactivity”. In the case of “QVQLVESGGGLVQAGGSLRLSGAASGSIFDIYAMGWYRPAPGKERELVADITISGGSTYYADSVKVRFTISRDNAKNTVYLQMNSLIPEDTAVYYCAADVTVVLGYKYDYWGQGTQVTVSS”, the “polyreactivity (PSR sort gate)” value is reported as “low polyreactivity”. In the case of “QVQLVESGVGLVQAGGSLRLSCAASGRIFRYYTMGRYRHAPGKERELVAAITKSGGRTYYADSVKGRFTISRDTANNTVYLQMNSLKPEDTAVYYCAARRLYWGQGTQVTVSS”, the “polyreactivity (PSR sort gate)” value is reported as “high polyreactivity”. In the case of “QVQLVESGGGLVQAGGSLRLSCAASGITFSRNVMGWYRQAPGKERELVAAISRSGGTTTYADSVKGRFTISRDNAKNTVYLQMNSLKPEDTAVYYCNVYDYPTYDYWGQGTQVSVSS”, the “polyreactivity (PSR sort gate)” value is reported as “low polyreactivity”. In the case of “QVQLVESGGGLVQAGGSLRLSCAASGSTFYPNAMGWYRQAPGKERELVAAISRSGGSTYYADSVKGRFTISRDNAKNTVYLQMNSLKPEDTAVYYCAADGRSPARYDYWGQGTQVTVSS”, the “polyreactivity (PSR sort gate)” value is reported as “low polyreactivity”. With “QLQLVESGGGLVQAGGRLRLSCAASGFIFWSYAMGWYRQAPGKERELVAAISARGGSTYYADSVKGRFTISRDNSKNTVYLQMNSLKPEDTAVYYCAAPRASGYYWGKGTQVTVSS” the “polyreactivity (PSR sort gate)” value was “high polyreactivity”. For “QVQLVESGGGLVQAGGSLRLSCAASGITFNHYAMGWSRQAPGKERELVAVISRTVGSTYYADSVKGRFTISRDNAKNTVYLQMNSLKPEDTAVYYCAARGPRPDGYSGRSDYWGQGTQVTVSS”, the “polyreactivity (PSR sort gate)” value was “high polyreactivity”. In the case of “QVQLVESGGGLVQAGGSLRLSCAASGSNFHGNAMGWSRQAPGKERELVAAISQSGDSTYYADSVKGRFTISRDNAKNTVYLQMNSLKPEDTAVYYCAARSGYRGYYHFYYWGQGTQVTVSS”, the “polyreactivity (PSR sort gate)” value is reported as “high polyreactivity”. With “QVQLVESGGGLVQAGGSLRLSCAASGFTFPKYAMGWYRQAPGKERELVAAISYRGGSTYYADSVKGRFTISRDNAKNTVYLQMNSLKPEDTAVYYCAAEIPHAPYEYWGQGTQVTVSS” the “polyreactivity (PSR sort gate)” value was “high polyreactivity”. For “QVQLVESGGGLVQAGVSLRLSCAASGSTFSVNAMGWYRQAPGKERELVAAITYSGGSTYYADSVKGRFTISRDNAKNTVYLQMNSLKPEDTAVYYCAAEGGSALDDDYWGQGTQVTVSS”, the “polyreactivity (PSR sort gate)” value was “high polyreactivity”. In the case of “QVQLGESGGGLLQAGGSLRLICAASGSIFSPYDMGWYRHAPGKERVLVAAITGSGASTYYADSVKGRFSISRDNAKNTVSLEMNSLKPEETAVYYCAAVSKYYTTWTSGYWGQGTQVTLSS”, the “polyreactivity (PSR sort gate)” value is reported as “low polyreactivity”. In the case of “QVQLVESGGGLVQAGGSLRLSCAASGSTFKYYTMGWYRQAPGKERELVAAISYSGGSTYYADSVKGRFTISRDNAKNTVYLQMNSLKPEDTAVYYCAALRYADYDYWGQGTQVTVSS”, the “polyreactivity (PSR sort gate)” value is reported as “high polyreactivity”. In the case of “QVQLVESVGGLVQAGGSLRLSCAASGRIFDRYAMGWYRQAPGKERELVAAISSSGGSTYYADSVKGRFTISRDNAKNTVYLQMNSLKPEDTAVYYCAAPRSRSRTSRFDYWGQGTQVTVSS”, the “polyreactivity (PSR sort gate)” value is reported as “high polyreactivity”. For “QVQLVESGGGLVQAGGSLRLSCAASGFTFYWTAMGWYRQAPGKERELVAAINGGDSTNYADSVKGRFTISRDNAKNTVYLQMNSLKPEDTAVYYCAKYYYTSIVGYDSWGQGTQVTVSS”, the “polyreactivity (PSR sort gate)” value was “low polyreactivity”. For “QVQLVESGGGLVQAGGSLRLSCAASGSIFFYYTMGWYRQAPGKERELVAAISDSGGSTYYADSVKGRFTISRDNAKNTVYLQMNSLKPEDTAVYYCAAADWFTVLESERVDYWGQGTQVTVSS”, the “polyreactivity (PSR sort gate)” value was “low polyreactivity”. In the case of “QVQLVESGGGLVQAGGSLRLSCADSGRIYYSNAMGWSRQAPGKEREWVAAISRSGVRTYYADSVKGRYSISRDNAKNTVYLQKNSLKPEDTADYYCAAVIYGTTPQDEYDYWGQGTQVTVSS”, the “polyreactivity (PSR sort gate)” value is reported as “low polyreactivity”. With “QVQLVESGGGLVQAGGSLRLSCAASGFTFRQNAMGWYRQAPGKERELVAAISYSGGRTYYADSVKGRFTISRDNEMNTVYLQMNRLKPEDTAVYYCAVTYGIDYGYEYWGQGTQVTVSS” the “polyreactivity (PSR sort gate)” value was “high polyreactivity”. For “QVQLVESGGGLVQAGGSLRLSCAASGYIFERNAMGWYRQAPGKERELVAAITDDGDDTYYADSVKGRFTISRDNAKNTVYLQMNSLKAEDTAVYYCAKDLYYGDYYYWGQGTQVTVSS”, the “polyreactivity (PSR sort gate)” value was “low polyreactivity”. With “QVQLVESGGGLVQAGGSLRLSCAASGSTFHRNTMGWYRQAPAKERALVAGISLRGVSTYYADSVKGRFTISRDNAKNTVYLQMNSLKPEDTAVYYCAAGGPYTRNFKLGYWGQGTQVTVSS” the “polyreactivity (PSR sort gate)” value was “high polyreactivity”. With “QVHLVESGGGLVQAGGSLRLSCAASGNTFDINAMGWYRQAPGKERELVAAISFSGGDTYYADSVKGRFTISRDNAKNTVYLQMNILKPEHTAVYYCAAEVPDTDAYGYWGQGTQVTVSS” the “polyreactivity (PSR sort gate)” value was “low polyreactivity”. For “QVQLVESGGGLVQAGGSLRLSCAASGSTFIFNTMGWYRQAPGKERELVATITGSGGSTYYADSVKGRFTISRDNAKNTVYLQMNSLKPEDTAVYYCAAVGDQNEYDYWGQGTQVTVSS”, the “polyreactivity (PSR sort gate)” value was “low polyreactivity”. In the case of “QVQLVESGGGLVQAGGSLRLSCAASGSIFDVNTMGWYRQAPGKERELVASITSSGSTYYADSVKGRFTISRDNAKNTVYLQMNSLKPEDTAVYYCAAASGGTVVGEGDYWGQGSQVTVSS”, the “polyreactivity (PSR sort gate)” value is reported as “low polyreactivity”. With “QVQLVESGGGLVQAGGSLRLSCAASGSTYGRNAMGWYRQATGKERELVAAINSGGGTYYADSVKGRFTISRDNAKNTVYLQMYSLKPEDTAVYYCAAARRYGKYDYWGQGTQVTVSS” the “polyreactivity (PSR sort gate)” value was “low polyreactivity”. With “QVQIVESCGGLVQAGGSLRLICAATGSIFLRNTMGWYRQAPAKQRELVASIDWSGGITYYADSVKGRFTISRDNAKNTVYLQMNSLKQEDTAVYFCNAVFLYPFNVPTMEYWGQGTQVTVSS” the “polyreactivity (PSR sort gate)” value was “low polyreactivity”. In the case of “QDQLVESGGGLLQAGGSLRLSCAASGRNFVRNAMGWYRQAPGKEWELVAAISWSSGGTYYADSVKGRFTISRDNAKYTVYLQMNSLKPEDNSVYYCNARGWTLGADFGYWGQGTQVTVSS”, the “polyreactivity (PSR sort gate)” value is reported as “low polyreactivity”. For “QVQLVESGGGLVQAGGSLRLSCAASGSIFWVNAMGWYRQAPGKERELVAAITWSAGSTYYADSVKGRFTISRDNANNTVYLQMNSLKPEDTAVYYFAAGVAWYYWTLDYWGQGTQVTVSS”, the “polyreactivity (PSR sort gate)” value was “low polyreactivity”.
